# Data: patent US20230151091A1 (NEW YORK UNIVERSITY, published 2023)
# Numbering of substitutions follows the chain as printed.
# B1: 3B2g1m4 (antibody, human IgG1, V domains shown)
# VH: EVQLLESGGGLVQPGGSLRLSCAASGFTFSDYGMSWVRQAPGKGLEWVSAIPWQGGSTYYKESVKGRFTISRDNSKNTLYLQMNSLRAEDTAVYYCAKRSGRIAFGALDAWGQGTLVTVSS
# VL: QTVVTQEPSFSVSPGGTVTLTCGLSSGSVTSSNYPDWYQQTPGQAPRTLIYSTDSRHSGVPDRFSGSILGNKAALTITGAQADDESDYYCGLYMYSGSKNYVFGGGTKLTVL
# notes: human IgG1-LALA backbone; produced in HEK293 cells
# B2: 3B2g2m2 (antibody, human IgG1, V domains shown)
# VH: B1 VH with W53G, Q54S
# VL: B1 VL with M94S
# notes: as for B1
# B3: 3B2g2m4 (antibody, human IgG1, V domains shown)
# VH: B1 VH
# VL: B1 VL with M94S
# notes: as for B1
# Target: T1, rat MuSK (rat, UniProt Q62838 22-494, limits assumed)
# T1 construct: Coated on Biacore chip (200RU) or ELISA plate
# T1 sequence (looked up): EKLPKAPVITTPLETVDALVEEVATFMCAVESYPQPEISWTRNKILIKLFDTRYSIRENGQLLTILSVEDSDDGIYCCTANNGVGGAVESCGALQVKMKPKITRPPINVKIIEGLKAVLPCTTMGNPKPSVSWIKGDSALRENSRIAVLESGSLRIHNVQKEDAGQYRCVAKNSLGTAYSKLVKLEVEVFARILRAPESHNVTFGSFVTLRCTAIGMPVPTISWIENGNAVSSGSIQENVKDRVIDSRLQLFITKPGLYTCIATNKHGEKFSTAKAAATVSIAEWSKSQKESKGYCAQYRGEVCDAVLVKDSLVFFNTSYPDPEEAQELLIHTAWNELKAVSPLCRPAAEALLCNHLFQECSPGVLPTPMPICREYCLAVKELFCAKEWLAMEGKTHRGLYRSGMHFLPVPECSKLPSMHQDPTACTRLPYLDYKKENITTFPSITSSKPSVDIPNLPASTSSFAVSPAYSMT
# Test: Biacore, MuSK on chip (200RU), 66.7 nM mAb, dissociation pH 7.4
# Experimental: (§1) For affinity determination, a CMS chip was coated with cynomolgus monkey, rat and mouse MuSK (200RU) and 66.7 nM of antibody was applied and kinetic parameters calculated (Table 8). The following conclusions could be drawn: (1) 3B2g1m3 and 3B2g2m3 (m3 variants) show significant drop in affinity for MuSK for all species tested; (2) 3B2g1m2 and 3B2g2m2 (m2 variants) show some drop in affinity for MuSK; (3) 3B2g1m1, 3B2g2m1, 3B2g1m4, 3B2g2m4 (ml and m4 variants) show no drop in affinity for MuSK for all species tested; and (4) for all clones there is no difference between g1 and g2 variants (VL methionine versus serine in CDR3).
Binder,R0 [RU],koff [s⁻¹],kon [M⁻¹ s⁻¹]
B1,155,0.00192,1.12e+06
B2,130,0.00281,1.56e+06
B3,158,0.00196,1.19e+06

# Target: T2, mouse MuSK (mouse, UniProt Q61006 22-494, limits assumed)
# T2 construct: Coated on ELISA plates or on the Biacore chip; also called full length mouse MuSK; mouse MuSK (in house produced in HEK293 cells)
# T2 sequence (looked up): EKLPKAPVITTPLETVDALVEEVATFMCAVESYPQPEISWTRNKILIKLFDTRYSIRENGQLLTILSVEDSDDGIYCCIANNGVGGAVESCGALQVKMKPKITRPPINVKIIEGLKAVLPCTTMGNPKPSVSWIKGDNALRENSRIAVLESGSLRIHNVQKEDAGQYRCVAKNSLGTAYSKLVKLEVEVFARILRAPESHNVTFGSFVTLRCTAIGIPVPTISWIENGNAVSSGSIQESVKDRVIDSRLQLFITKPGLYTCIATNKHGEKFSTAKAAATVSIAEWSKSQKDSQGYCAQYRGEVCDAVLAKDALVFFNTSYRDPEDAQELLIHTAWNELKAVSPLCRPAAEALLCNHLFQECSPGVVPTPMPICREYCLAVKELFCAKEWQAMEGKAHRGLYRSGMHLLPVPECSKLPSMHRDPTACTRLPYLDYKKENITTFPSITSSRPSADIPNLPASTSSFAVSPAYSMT
# Test: as above
# Experimental: as §1
Binder,R0 [RU],koff [s⁻¹],kon [M⁻¹ s⁻¹]
B1,192,0.00065,1.08e+06
B2,158,0.00231,1.71e+06
B3,193,0.00064,1.15e+06

# Target: T3, cynomolgus monkey MuSK (cynomolgus monkey, UniProt A0A2K5USF6 24-487)
# T3 sequence (A0A2K5USF6 entry or part of it): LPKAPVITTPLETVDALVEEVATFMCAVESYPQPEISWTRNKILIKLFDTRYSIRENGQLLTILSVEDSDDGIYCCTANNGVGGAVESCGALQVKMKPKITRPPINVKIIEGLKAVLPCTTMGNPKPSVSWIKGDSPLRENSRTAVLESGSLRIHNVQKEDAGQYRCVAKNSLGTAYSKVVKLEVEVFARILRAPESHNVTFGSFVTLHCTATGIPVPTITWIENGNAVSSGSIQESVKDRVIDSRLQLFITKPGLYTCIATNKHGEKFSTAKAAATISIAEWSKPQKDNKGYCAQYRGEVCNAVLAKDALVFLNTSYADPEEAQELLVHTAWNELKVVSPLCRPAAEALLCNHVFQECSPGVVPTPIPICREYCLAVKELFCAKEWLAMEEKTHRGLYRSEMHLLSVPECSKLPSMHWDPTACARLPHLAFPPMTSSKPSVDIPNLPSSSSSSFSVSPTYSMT
# Test: as above
# Experimental: as §1
Binder,R0 [RU],koff [s⁻¹],kon [M⁻¹ s⁻¹]
B1,140,0.00086,730000
B2,136,0.00179,890000
B3,142,0.00088,790000

# Target: T4, mouse MuSK, endogenous (C2C12 myotubes; neuromuscular synapses of mice) (mouse, UniProt Q61006 22-868)
# T4 sequence (looked up): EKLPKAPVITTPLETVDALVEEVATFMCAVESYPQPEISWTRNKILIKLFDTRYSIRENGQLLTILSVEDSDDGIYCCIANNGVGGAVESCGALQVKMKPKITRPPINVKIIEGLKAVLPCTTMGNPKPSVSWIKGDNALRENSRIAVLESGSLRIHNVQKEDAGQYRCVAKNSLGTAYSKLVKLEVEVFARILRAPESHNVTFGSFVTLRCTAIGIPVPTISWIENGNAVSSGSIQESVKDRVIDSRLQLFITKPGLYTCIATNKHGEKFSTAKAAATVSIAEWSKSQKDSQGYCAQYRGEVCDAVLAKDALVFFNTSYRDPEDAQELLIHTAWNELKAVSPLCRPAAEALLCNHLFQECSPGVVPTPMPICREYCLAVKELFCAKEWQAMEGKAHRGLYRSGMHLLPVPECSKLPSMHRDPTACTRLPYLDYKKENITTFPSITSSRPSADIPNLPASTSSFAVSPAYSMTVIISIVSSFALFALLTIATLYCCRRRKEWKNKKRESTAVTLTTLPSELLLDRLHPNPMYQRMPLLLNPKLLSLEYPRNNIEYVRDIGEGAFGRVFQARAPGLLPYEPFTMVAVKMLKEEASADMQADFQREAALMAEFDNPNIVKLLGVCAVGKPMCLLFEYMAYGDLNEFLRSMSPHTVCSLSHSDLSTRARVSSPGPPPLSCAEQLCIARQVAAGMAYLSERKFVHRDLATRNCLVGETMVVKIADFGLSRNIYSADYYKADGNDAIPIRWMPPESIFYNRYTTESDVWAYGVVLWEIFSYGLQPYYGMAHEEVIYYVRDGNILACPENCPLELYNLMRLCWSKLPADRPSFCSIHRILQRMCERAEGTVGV
# Test: cell-based or functional assay
row,Binder,MuSK phosphorylation in C2C12 myotubes
1,B1,~58 % of 1 nM agrin
2,B2,~80 % of 1 nM agrin
3,B3,~58 % of 1 nM agrin

# Target: T1, rat MuSK
# Test: Biacore, MuSK on chip, association pH 7.4, dissociation pH 5.5
# Experimental: as §1
# (§2) In order to study pH dependent binding of our antibodies to MuSK, the same Biacore was used as above, but now dissociation was done at pH 5.5 instead of pH 7.4. […] The following conclusions could be drawn for the different variants: (1) 3B2g1m3 and 3B2g2m3 (m3 variants) show significant drop in affinity for MuSK for all species tested; (2) 3B2g1m2 and 3B2g2m2 (m2 variants) show some drop in affinity for MuSK; (3) 3B2g1m1, 3B2g2m1, 3B2g1m4, 3B2g2m4 (m1 and m4 variants) show no drop in affinity for MuSK for all species tested; and (4) for all clones there is no difference between g1 and g2 variants (VL methionine versus serine in CDR3).
Binder,R0 [RU],koff [s⁻¹],kon [M⁻¹ s⁻¹]
B1,171,0.00558,950000
B2,145,0.0973,40000
B3,172,0.00538,1.02e+06

# Target: T2, mouse MuSK
# Test: as above
# Experimental: as §1, §2
Binder,R0 [RU],koff [s⁻¹],kon [M⁻¹ s⁻¹]
B1,191,0.00304,980000
B2,153,0.0882,210000
B3,191,0.003,1.04e+06

# Target: T3, cynomolgus monkey MuSK
# Test: as above
# Experimental: as §1, §2
Binder,R0 [RU],koff [s⁻¹],kon [M⁻¹ s⁻¹]
B1,146,0.00261,680000
B2,146,0.00326,860000
B3,148,0.00256,750000
